Source: the Immune Epitope Database (IEDB)
Each block holds one sequence with its values, some of them ahead of it.

Key:
[1] = biological target: HLA-A*01:01; assay: IEDB peptide-MHC binding, purified MHC/direct/fluorescence; filed as Kd, often an IC50 or EC50 that approximates it; ≥ and ≤ were set here for values at or beyond the usual limits of such assays
[2] = biological target: HLA-A*02:01; assay: as above
[3] = biological target: HLA-A*11:01; assay: as above
[4] = biological target: HLA-A*31:01; assay: as above
[5] = biological target: HLA-A*69:01; assay: as above; conditions: source organism: Mycobacterium tuberculosis
[6] = biological target: HLA-B*08:01; assay: as above
[7] = biological target: HLA-B*08:02; assay: as above
[8] = biological target: HLA-B*08:03; assay: as above
[9] = biological target: HLA-B*15:01; assay: as above
[10] = biological target: HLA-B*15:17; assay: as above
[11] = biological target: HLA-B*18:01; assay: as above
[12] = biological target: HLA-B*27:05; assay: as above
[13] = biological target: HLA-B*40:01; assay: as above
[14] = biological target: HLA-B*46:01; assay: as above
[15] = biological target: HLA-B*48:01; assay: as above
[16] = biological target: HLA-B*57:01; assay: as above
[17] = biological target: HLA-B*58:01; assay: as above
[18] = biological target: HLA-A*02:06; assay: IEDB peptide-MHC binding, purified MHC/competitive/fluorescence; filed as Kd, often an IC50 or EC50 that approximates it; ≥ and ≤ were set here for values at or beyond the usual limits of such assays; conditions: source organism: Mycobacterium tuberculosis variant bovis BCG str. Pasteur 1173P2
[19] = biological target: HLA-A*26:01; assay: as above; conditions: source organism: Mycobacterium tuberculosis variant bovis BCG str. Pasteur 1173P2
[20] = biological target: HLA-A*26:02; assay: as above; conditions: source organism: Mycobacterium tuberculosis variant bovis BCG str. Pasteur 1173P2
[21] = biological target: HLA-A*26:03; assay: as above; conditions: source organism: Mycobacterium tuberculosis variant bovis BCG str. Pasteur 1173P2
[22] = biological target: HLA-A*68:02; assay: as above; conditions: source organism: Mycobacterium tuberculosis variant bovis BCG str. Pasteur 1173P2
[23] = biological target: HLA-B*07:02; assay: as above; conditions: source organism: Mycobacterium tuberculosis variant bovis BCG str. Pasteur 1173P2
[24] = biological target: HLA-A*03:01; assay: IEDB peptide-MHC binding, purified MHC/direct/fluorescence; filed as Kd, often an IC50 or EC50 that approximates it; ≥ and ≤ were set here for values at or beyond the usual limits of such assays; conditions: source organism: Yersinia pestis
[25] = biological target: HLA-A*26:01; assay: as above; conditions: source organism: Yersinia enterocolitica subsp. enterocolitica 8081
[26] = biological target: HLA-A*26:03; assay: as above; conditions: source organism: Yersinia enterocolitica subsp. enterocolitica 8081
[27] = biological target: HLA-A*68:02; assay: as above; conditions: source organism: Yersinia pestis
[28] = biological target: HLA-B*07:02; assay: as above; conditions: source organism: Yersinia pestis
[29] = biological target: HLA-A*01:01; assay: IEDB peptide-MHC binding, purified MHC/competitive/fluorescence; ≥ and ≤ were set here for values at or beyond the usual limits of such assays
[30] = biological target: HLA-A*02:01; assay: as above
[31] = biological target: HLA-A*03:01; assay: as above
[32] = biological target: HLA-A*11:01; assay: as above
[33] = biological target: HLA-A*24:02; assay: as above
[34] = biological target: HLA-A*25:01; assay: as above
[35] = biological target: HLA-A*29:02; assay: as above
[36] = biological target: HLA-A*31:01; assay: as above
[37] = biological target: HLA-A*68:02; assay: as above
[38] = biological target: HLA-B*07:02; assay: as above
[39] = biological target: HLA-B*08:01; assay: as above
[40] = biological target: HLA-B*14:02; assay: as above
[41] = biological target: HLA-B*18:01; assay: as above
[42] = biological target: HLA-B*35:01; assay: as above
[43] = biological target: HLA-B*37:01; assay: as above
[44] = biological target: HLA-B*40:02; assay: as above
[45] = biological target: HLA-B*44:03; assay: as above
[46] = biological target: HLA-B*51:01; assay: as above
[47] = biological target: HLA-B*53:01; assay: as above
[48] = biological target: HLA-B*58:01; assay: as above
[49] = biological target: HLA-C*14:02; assay: IEDB peptide-MHC binding, purified MHC/direct/fluorescence; filed as Kd, often an IC50 or EC50 that approximates it; ≥ and ≤ were set here for values at or beyond the usual limits of such assays; conditions: source organism: Homo sapiens
[50] = source organism: Mycobacterium tuberculosis
[51] = source organism: Mycobacterium tuberculosis str. Haarlem
[52] = source organism: Yersinia pestis
[53] = source organism: Yersinia enterocolitica subsp. enterocolitica 8081
[54] = source organism: Tarsius lariang

Sequence: AVFDSFVER
Kd [1, 50]: ≥ 20 µM
Kd [2, 50]: ≥ 20 µM
Kd [3, 50]: 0.009 µM
Kd [4, 50]: 0.004 µM
Kd [5]: ≥ 20 µM
Kd [6, 51]: ≥ 20 µM
Kd [7, 51]: ≥ 20 µM
Kd [8, 51]: ≥ 20 µM
Kd [9, 50]: ≥ 20 µM
Kd [10, 50]: ≥ 20 µM
Kd [11, 50]: ≥ 20 µM
Kd [12, 50]: ≥ 20 µM
Kd [13, 50]: ≥ 20 µM
Kd [14, 50]: ≥ 20 µM
Kd [15, 50]: ≥ 20 µM
Kd [16, 50]: ≥ 20 µM
Kd [17, 50]: ≥ 20 µM
Kd [18]: 0.0023 µM
Kd [19]: ≥ 20 µM
Kd [20]: ≥ 20 µM
Kd [21]: ≥ 20 µM
Kd [22]: ≥ 20 µM
Kd [23]: ≥ 20 µM

Sequence: SDDQLRLLK
Kd [1, 52]: ≥ 20 µM
Kd [2, 52]: ≥ 20 µM
Kd [24]: ≥ 20 µM
Kd [3, 52]: 0.407 µM
Kd [25]: ≥ 20 µM
Kd [26]: ≥ 20 µM
Kd [4, 52]: ≥ 20 µM
Kd [27]: ≥ 20 µM
Kd [28]: ≥ 20 µM
Kd [6, 53]: ≥ 20 µM
Kd [7, 53]: ≥ 20 µM
Kd [8, 53]: ≥ 20 µM
Kd [9, 52]: ≥ 20 µM
Kd [10, 52]: ≥ 20 µM
Kd [11, 52]: ≥ 20 µM
Kd [12, 52]: ≥ 20 µM
Kd [13, 52]: ≥ 20 µM
Kd [14, 52]: ≥ 20 µM
Kd [15, 52]: ≥ 20 µM
Kd [16, 52]: ≥ 20 µM
Kd [17, 52]: ≥ 20 µM

IC50 ([29]; source organism: Homo sapiens): ≥ 20 µM
IC50 ([30]; source organism: Homo sapiens): 0.131 µM
IC50 ([31]; source organism: Homo sapiens): ≥ 20 µM
IC50 ([32]; source organism: Homo sapiens): ≥ 20 µM
IC50 ([33]; source organism: Homo sapiens): 0.0113 µM
IC50 ([34]; source organism: Homo sapiens): ≥ 20 µM
IC50 ([35]; source organism: Homo sapiens): 0.824 µM
IC50 ([36]; source organism: Homo sapiens): ≥ 20 µM
IC50 ([37]; source organism: Homo sapiens): 0.777 µM
IC50 ([38]; source organism: Homo sapiens): ≥ 20 µM
IC50 ([39]; source organism: Homo sapiens): ≥ 20 µM
IC50 ([40]; source organism: Homo sapiens): ≥ 20 µM
IC50 ([41]; source organism: Homo sapiens): ≥ 20 µM
IC50 ([42]; source organism: Homo sapiens): ≥ 20 µM
IC50 ([43]; source organism: Homo sapiens): ≥ 20 µM
IC50 ([44]; source organism: Homo sapiens): ≥ 20 µM
IC50 ([45]; source organism: Homo sapiens): ≥ 20 µM
IC50 ([46]; source organism: Homo sapiens): ≥ 20 µM
IC50 ([47]; source organism: Homo sapiens): ≥ 20 µM
IC50 ([48]; source organism: Homo sapiens): ≥ 20 µM
Kd [49]: 0.575 µM
Sequence: SYMMDDLELI

IC50 [29, 54]: ≥ 20 µM
IC50 [30, 54]: ≥ 20 µM
IC50 [31, 54]: ≥ 20 µM
IC50 [32, 54]: ≥ 20 µM
IC50 [33, 54]: 0.57 µM
IC50 [34, 54]: ≥ 20 µM
IC50 [35, 54]: ≥ 20 µM
IC50 [36, 54]: ≥ 20 µM
IC50 [37, 54]: ≥ 20 µM
IC50 [38, 54]: ≥ 20 µM
IC50 [39, 54]: ≥ 20 µM
IC50 [40, 54]: ≥ 20 µM
IC50 [41, 54]: 0.0432 µM
IC50 [42, 54]: ≥ 20 µM
IC50 [43, 54]: 0.394 µM
IC50 [44, 54]: 0.0405 µM
IC50 [45, 54]: ≥ 20 µM
IC50 [46, 54]: ≥ 20 µM
IC50 [47, 54]: ≥ 20 µM
IC50 [48, 54]: ≥ 20 µM
Sequence: TEAEKWPFF
